The nature of this series: yeast display, Sf9 membrane polyspecificity reagent, FACS + sequencing; frameworks hold sequencing errors. In outline:
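In a synthetic yeast display library (Saccharomyces cerevisiae BJ5465), nanobody expression was induced with galactose for 36–48 hours. FACS gates were set low and high (top ~1%) using anti-HA fluorescence for expression and streptavidin fluorescence for binding of the Sf9 membrane reagent. Each polyreactivity label is drawn from the gate of origin.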
Take “QVQLVESGGGLVQAGGSLRLSCAASGSTYDIYAMGWYRQAPGKEREKVAAISWSGGSTHYADSVKGRFTISRDNAKNTVFFQMNSLKPEDTAVYYCAAVGRLWSLWRTKSYNYWGQGTEVTVSS”: the “polyreactivity (PSR sort gate)” value is “low polyreactivity”.
Regarding “QVQLVESGGGLVQAGGSLRLSCAASGSTYDNNRMGWYRQATGKERELVASITFNVGSTYYADSVKGRFTISRDNAKNTVYLQMNSLKPEETAVYYCAADDLNLSQALGYDYWGQGTQVTVSS”, the “polyreactivity (PSR sort gate)” value is “low polyreactivity”.
For the sequence “QVQLVESGGGLVQAGGSLRLSCAASGSTYHYAMGWYRQAPGKERELVASITWRGDTTYYADSVKGRFTISRDNAKNTVYLQMNSLKPEDTAVYYGATVPYSPPSAGPEYDYWGQGTQVTVSS”, the “polyreactivity (PSR sort gate)” value is reported as “high polyreactivity”.
As for “QVQLVESGGGLVQAGGSLRLSCAASGSTYNNAMGWYRQAPGKERELVAAIRWSGGSTYYADSVKGRFTISRDNAKNTVYLQMNSLKPEDTAVYYCAARYRWSRKRYNDYDYWGQGTQVTVSS”, the “polyreactivity (PSR sort gate)” value is on record as “high polyreactivity”.
As to “QVQLVESGGGLVQAGGSLRLSCAASGSTYNVNAMGWARQAPGKERELVAAITSSGGSSNYADSVKGRFTISRDNAKNTVYLQMNSLKPEDTAVYYCAADAIFFSRLNLGYDYWGQGTQVTVSS”, the “polyreactivity (PSR sort gate)” value is on record as “low polyreactivity”.
With “QVQLVESGGGLVQAGGSLRLSCAASGSTYRNAMGWYRQAPGKERELVAAITKSDSSTYYADSVKGRFTISRDNAKNTVYLQMYSLKPEDTAVYYCNVDRAWPPWPYDYWGQGTQVTVSS”, the “polyreactivity (PSR sort gate)” value is recorded as “low polyreactivity”.
As for “QVQLVESGGGLVQAGGSLRLSCAASGSTYRYTMGWYRQAPGKERELVAAITGSAGRTYYADSVKGRFTISRDNAKNTVYLQMNSLKPEDTAVYYCNKDRPRKFWDYYYWGQGTQVTVSS”, the entry is “high polyreactivity”; as for “QVQLVESGGGLVQAGGSLRLSCAASGSTYTYALGWSRQAPGKERELVADITQSGGSTYYADSVKGRFTISRDNAKNTVYLQMNSLKTEDTAVYYCNAESRHVFEDEYWGQGTQVTGSS”, “low polyreactivity”; as for “QVQLVESGGGLVQAGGSLRLSCAASGSTYVGYAMGWYRQAPRKERDLVADIDSIGGSTYYADTVKRRFTISRDKAKNTVYLQMNSLKPEDTAVYYCAARRFDTALVLYDYWGQCTQVTVSS”, “low polyreactivity”.
As to “QVQLVESGGGLVQAGGSLRLSCAASGSTYVGYTLGWYRQAPGKERELVAAITRRSGSTYYADSVKGRFTISRDNAKNTVYVQMNSLKPEDTAVYYCAKDFSRYSRFGHTEHDYWGQGTQVTVSS”, the “polyreactivity (PSR sort gate)” value is “high polyreactivity”.
As for “QVQLVESGGGLVQAGGSLRLSCAASGSTYYENTMGWYRQAPGKEREMVAAISFRGGSTYYADSVKGRFTISRDNAKNTVYLQMNSLKPDDTAVYYCAKEYYTVRLYDYWGQGTQGTVSS”, the “polyreactivity (PSR sort gate)” value is listed as “low polyreactivity”.
As for “QVQLVESGGGLVQAGGSLRLSCAASGSTYYLYAMGWYRQAPGKESEFVARISASGGNTYYADSVKGRFTISRDNAKNTVYLQMNRLIPEDTAVFYCAARVRGRNASDYDYYYWGQGTQVTVSS”, the entry is “high polyreactivity”.
The entry for “QVQLVESGGGLVQAGGSLRLSCAASGSTYYNAMGWYIQAPGKERELVAAIRFRSGSTYYADSVKGRFTISRDNAKNTVYLQMNSMKPVDTAVYYCAADNKRSWRYAYNYWGQGTQVTVSS” is “high polyreactivity”; for “QVQLVESGGGLVQAGGSLRLSCAASGSTYYNTMGWYRQAPGKEREFVAAITWSTGTTYYADSVKGRFTISRDNAKNTVYLQMNSLKPEDTAVYYCATDDSRDWLNYWGQGTQVTVSS” it is “low polyreactivity”; for “QVQLVESGGGLVQAGGSLRLSCAASGSTYYQYVMGWYRQAPGKEMELVAAISGSGGSTYYADSVKGRFTISRDNAKNTVYLQMNSLKPEDTAVYYCAARLRGRGRPPFGYWGQGTQLTVSS” it is “high polyreactivity”.
The entry for “QVQLVESGGGLVQAGGSLRLSCAASGSTYYTNAMGWYRQAPGKERELVATITSSGGITSYADSVKGRFTISRDNAKNTVYLQMNSVKPEDTAVYYCAADFGSSYDTHEYGYWGQGTQVTVSS” is “low polyreactivity”; for “QVQLVESGGGLVQAGGSLRLSCAASGSTYYYNAMGWYRQAPGKERELVARISRSGGSTYADSVKGRFSISRDNAKNTVYLQMNSLKPEDTAVYYCNAYAYGTPEFTSYAVRYDYWGQGTQVTVSS” it is “low polyreactivity”; for “QVQLVESGGGLVQAGGSLRLSCAASGSYFTYNRMGRYRQAPGKEREFVAANTWTGGSTYADSVKGRFTISRDNAKYTVYLQMNSLKPEDTAVYYCAAVRRFSWYTPVTTRRYYYWGQGTQVTVSS” it is “high polyreactivity”.
As for “QVQLVESGGGLVQAGGSLRLSCAASGTFAFYTMGWYRQAPGKERELVAAISWDGGDTYYADSVKGRFTISRDNAKNTVYLQMNSLKPEDTAVYYCAADYSNSGYGYWGQGTQVTVSS”, the “polyreactivity (PSR sort gate)” value is given as “low polyreactivity”.
For “QVQLVESGGGLVQAGGSLRLSCAASGTFAGNAMGCYRQSPGKERELVASITTGGRTYYADSVKGRFTISRDNAKNTVYLQMNSLKPEDTAVFYCSADLIRELEFDYWGQGTQVTVSS”, the “polyreactivity (PSR sort gate)” value is on record as “low polyreactivity”.
Regarding “QVQLVESGGGLVQAGGSLRLSCAASGTFAIYAMGWYRQAPGKERELVAAIRWRGGRTYYADSVKGRFTISRDNAKNTVYFQMNSLKPEDTAVYYCAAEVPYYWWSPYRVDVGYWGQGTQVTVSS”, the “polyreactivity (PSR sort gate)” value is recorded as “high polyreactivity”.
For the sequence “QVQLVESGGGLVQAGGSLRLSCAASGTFDAYAMGWYRQAPGKERELVASISSSGGSTYYADSVKGRFTISRDNAKNTVYLQMNSLKPEDTAVYYCAATDFWYSGYYWGQGTQVTVSS”, the “polyreactivity (PSR sort gate)” value was “low polyreactivity”.
As for “QVQLVESGGGLVQAGGSLRLSCAASGTFDTYSMGWNRQAPGKERELVADISSVGSTYYADSVKWRFTISRDNAKNTVYLQMNSLKPEDTAVYYCAATYPYPYYYIEYYYWGQGTQVTVSS”, the “polyreactivity (PSR sort gate)” value is reported as “low polyreactivity”.
The entry for “QVQLVESGGGLVQAGGSLRLSCAASGTFGGYAMGWYRQAPGKEREFVAAIDYGGGSTYYADSVKGRFTMSRDNAKNTVYLQMNSLKPEDTAVYYCAAEHWGYTYDQDFSTWATIYEYWGQGTQVTVSS” is “high polyreactivity”.
Turning to “QVQLVESGGGLVQAGGSLRLSCAASGTFKYYAMGWYIQAPGEERELVAAISRGGRTNYADSVKGRFTISRDNAKNTVYLQMTSLKPEDTAVYYCAARKADTVFKFEYWGQGTQVTVSS”, the “polyreactivity (PSR sort gate)” value is “high polyreactivity”.
In the case of “QVQLVESGGGLVQAGGSLRLSCAASGTFRRYPMGWYRQEPGKERELVAAITSSGGTYYADSVKGRFTISRDNAKHTVYLQMNSLKPEDTALYYCAARDYWSRYFRPGIVGWHDYWGQGTQVTVSS”, the “polyreactivity (PSR sort gate)” value is on record as “high polyreactivity”.
As to “QVQLVESGGGLVQAGGSLRLSCAASGTFVTYMGLYRQAPGKERELVAAIRNGGSTNYADSVKGRFTISRDNAKNTVYLQMNSLKPEDTAVDYFTADYTYWNGWFATRDYWGQGTQVTVSS”, the “polyreactivity (PSR sort gate)” value is listed as “low polyreactivity”.
In the case of “QVQLVESGGGLVQAGGSLRLSCAASGTFWLYTMGWYRQAPGKERELVAAISLTAGNTYYADSVKGRFTISRDNAKNTVYLQMNSLKPEDTAVYYCAADHYYYTRYEYWGQGTQVTVSS”, the “polyreactivity (PSR sort gate)” value is recorded as “low polyreactivity”.
With “QVQLVESGGGLVQAGGSLRLSCAASGTFYRNAMGWYRQAPGKERELVAAISSGSNTDYADSVKGRFTISRDNAKNTVYLQMNSLKPEDTAVYYCAADSLARRYDYWGQGTQVTVSS”, the “polyreactivity (PSR sort gate)” value is reported as “low polyreactivity”.
The entry for “QVQLVESGGGLVQAGGSLRLSCAASGTIFASYAMGWYRQAPGKERELVAAISDGGGRTYYADSVKGRFTISRDNAKNTVYLQMNSLKPEDTAVYYCAAYAVYTYRRARGYWGQGTQVTVSS” is “high polyreactivity”; for “QVQLVESGGGLVQAGGSLRLSCAASGTIFGYYAMGWDREAPGKERELVAAITVSGSRTYYADSVKGRFTISRDKAKNTVYLQMNCLKPEATAVYYCAARYVSRYWAGRYPTRQRDSWGQGTQVTVSS” it is “high polyreactivity”.
The entry for “QVQLVESGGGLVQAGGSLRLSCAASGTIFGYYAMGWYRQAPGKERELVAAITSDGDTYYADSVKGRFTISRDNAKNTVYLQMNSLIPEDTAVYYCNATYGGPYYIQYDYWGQGTQVTVSS” is “low polyreactivity”; for “QVQLVESGGGLVQAGGSLRLSCAASGTIFLVYAMGWYRQAPGKERELVAAITFSGGDTYADSVKGRFTISRDNAKNTVYLQMNSLKPEDTAVYYCNAPWPFYGSVVGQDFDYWGQGTQVTVSS” it is “low polyreactivity”.
On to “QVQLVESGGGLVQAGGSLRLSCAASGTIFNEYAMGWYRQAPGKERELVAAISTSGDITYYADSVKGRFTISRDNAKNTVYLQMNSLKPEDTAVYYCAAKYSLLRQYNRLDYWGQGTQVTVSS”, for which the “polyreactivity (PSR sort gate)” value was “low polyreactivity”.
Regarding “QVQLVESGGGLVQAGGSLRLSCAASGTIFPTYAMGWYRQAPGKERELVAAISSIVGGTYYAHSVKGRFTISRDNAKNTVYLQMNSLKPEVTAVYYCAAPEDKYQHCIYGAYGVDYWGQGTQVTVSS”, the “polyreactivity (PSR sort gate)” value is reported as “low polyreactivity”.
The entry for “QVQLVESGGGLVQAGGSLRLSCAASGTIFVGYAMGWYRQAPGKERELVAAISWSGGRTYYADSVKGRFTISRDNAKNTVYLQMNSLKPEDTAVYYCAAPRYGGWRSYQKYDYWGQGTQVTVSS” is “high polyreactivity”; for “QVQLVESGGGLVQAGGSLRLSCAASGTIFVNNAMGWYRQAPGKERELVAAIRRSGGNTYYADSVKGRFTISRDNAKNTVYLQMNSLKPEDTAVYYCNVVRRADSIRAKSRDYWGQGTQVTVSS” it is “high polyreactivity”; for “QVQLVESGGGLVQAGGSLRLSCAASGTILSFNAMAWYRQAPGKERELVAAMSRGGSTNYADSVKGRFTISRDNEKNTVYLQMNCLIPEDTAVYYCAALRPYGKEDVSDGGMDYWGQGTQVTVSS” it is “high polyreactivity”.
Turning to “QVQLVESGGGLVQAGGSLRLSCAASGTIYDGYAMGWYRQAPGKERELVAAINTSGGTTYYADSENGRFTISRDKAKNNGYLQMNSLKPEETAVYYCNAHNHLPPYDYWGQGSQVTVSS”, the “polyreactivity (PSR sort gate)” value is on record as “low polyreactivity”.
Consider “QVQLVESGGGLVQAGGSLRLSCAASGTMGWYRQAPGKERELVAANSSSDRTSYADSVKGRFTISRDNAKNTVYLQMNSLKPEDTAVYYCNASTVFAWRTSTLKLFYTAHDYWGQGTQVTVSS”, for which the “polyreactivity (PSR sort gate)” value is reported as “low polyreactivity”.

The values above are taken from the nanobody polyreactivity screen of Harvey et al. (2022).
